Literature values as cited in publication PMC6023760.

Biological target: Thrombin exosite 2 (Homo sapiens) (UniProt P00734)

## Fibrin γ′-chain γ′ site (from UniProt P02679)
  Kd: 200 nM
